The values below come from patent US20070009988A1.

The target of one data set is gliadin 33mer … (wheat). The experiment in a line: cell-based or functional assay.
Data set [1] deals with T1, gliadin 33mer LQLQPFPQPQLPYPQPQLPYPQPQLPYPQPQPF
T1 chain: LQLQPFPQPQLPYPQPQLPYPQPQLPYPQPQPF

Data set [2] has as its target T2, gliadin 14mer PQPQLPYPQPQLPY
T2 chain: PQPQLPYPQPQLPY

The molecule Pronase came in with a digestion of the peptide over 20 h, E/S=1/25 with gliadin 33mer … (wheat) below 40%.

B1: cytosolic leucine aminopeptidase from porcine kidney (Sigma) (protein)
chain: TKGLVLGIYSKEKEDDAPQFTSAGENFDKLVSGKLREILNISGPPLKAGKTRTFYGLHEDFSSVVVVGLGKKGAGVDDQENWHEGKENIRAAVAAGCRQIQDLEIPSVEVDPCGDAQAAAEGAVLGLYEYDELKQKKKVVVSAKLHGSGDQEAWQRGVLFASGQNLARHLMETPANEMTPTRFAEVIEKNLKSASSKTDVHIRPKSWIEEQEMGSFLSVAKGSEEPPVFLEIHYKGSPDASDPPLVFVGKGITFDSGGISIKASANMDLMRADMGGAATICSTIVSAAKLDLPINLVGLAPLCENMPSGKANKPGDVVRAKNGKTIQVDNTDAEGRLILADALCYAHTFNPKVIINAATLTGAMDIALGSGATGVFTNSSWLWNKLFEASIETGDRVWRMPLFEHYTKQIVDCQLADVNNIGKYRSAGACTAAAFLKEFVTHPKWAHLDIAGVMTNKDEVPYLRKGMAGRPTRTLIEFLLRFSQDSA
As to B1, the “digestion of the peptide, RP-HPLC” value in data set [1] was “Cytosolic porcine kidney aminopeptidase is totally inactive towards the 33mer”.

B2: microsomal leucine aminopeptidase from porcine kidney (Sigma) (protein)
chain: YAQEKNKNAEHVPQAPTSPTITTTAAITLDQSKPWNRYRLPTTLLPDSYNVTLRPYLTPNADGLYIFKGKSIVRLLCQEPTDVIIIHSKKLNYTTQGHMVVLRGVGDSQVPEIDRTELVELTEYLVVHLKGSLQPGHMYEMESEFQGELADDLAGFYRSEYMEGNVKKVLATTQMQSTDARKSFPCFDEPAMKATFNITLIHPNNLTALSNMPPKGSSTPLAEDPNWSVTEFETTPVMSTYLLAYIVSEFQSVNETAQNGVLIRIWARPNAIAEGHGMYALNVTGPILNFFANHYNTSYPLPKSDQIALPDFNAGAMENWGLVTYRENALLFDPQSSSISNKERVVTVIAHELAHQWFGNLVTLAWWNDLWLNEGFASYVEYLGADHAEPTWNLKDLIVPGDVYRVMAVDALASSHPLTTPAEEVNTPAQISEMFDSISYSKGASVIRMLSNFLTEDLFKEGLASYLHAFAYQNTTYLDLWEHLQKAVDAQTSIRLPDTVRAIMDRWTLQMGFPVITVDTKTGNISQKHFLLDSESNVTRSSAFDYLWIVPISSIKNGVMQDHYWLRDVSQAQNDLFKTASDDWVLLNVNVTGYFQVNYDEDNWRMIQHQLQTNLSVIPVINRAQVIYDSFNLATAHMVPVTLALDNTLFLNGEKEYMPWQAALSSLSYFSLMFDRSEVYGPMKKYLRKQVEPLFQHFETLTKNWTERPENLMDQYSEINAISTACSNGLPQCENLAKTLFDQWMSDPENNPIHPNLRSTIYCNAIAQGGQDQWDFAWGQLQQAQLVNEADKLRSALACSNEVWLLNRYLGYTLNPDLIRKQDATSTINSIASNVIGQPLAWDFVQSNWKKLFQDYGGGSFSFSNLIQGVTRRFSSEFELQQLEQFKKNNMDVGFGSGTRALEQALEKTKANIKWVKENKEVVLNWFIEHS
B2: the “digestion of the peptide, RP-HPLC and ESI-MS” value in data set [1] was “incubation with microsomal porcine kidney aminopeptidase results only in a partial deletion of N-terminal Leu and C-terminal Phe (due to a carboxypeptidasic contaminant)”.

B3: recombinant ruLAP2 (aminopeptidase II of Trichophyton rubrum) produced in P. pastoris (protein)
chain: RLVGQEPFGWPFKPMVTQDDLQNKIKLKDIMAGVEKLQSFSDAHPEKNRVFGGNGHKDTVEWIYNEIKATGYYDVKKQEQVHLWSHAEAALNANGKDLKASAMSYSPPASKIMAELVVAKNNGCNATDYPANTQGKIVLVERGVCSFGEKSAQAGDAKAAGAIVYNNVPGSLAGTLGGLDKRHVPTAGLSQEDGKNLATLVASGKIDVTMNVISLFENRTTWNVIAETKGGDHNNVIMLGAHSDSVDAGPGINDNGSGSIGIMTVAKALTNFKLNNAVRFAWWTAEEFGLLGSTFYVNSLDDRELHKVKLYLNFDMIGSPNFANQIYDGDGSAYNMTGPAGSAEIEYLFEKFFDDQGIPHQPTAFTGRSDYSAFIKRNVPAGGLFTGAEVVKTPEQVKLFGGEAGVAYDKNYHRKGDTVANINKGAIFLNTRAIAYAIAEYARSLKGFPTRPKTGKRDVNPQYSKMPGGGCGHHTVFM
With B3, in the data set with Ala-proNPY, the “mass loss after overnight digestion (ESI-MS)” value is “the N-terminal alanine was almost totally removed (molecular mass loss of 71 amu) from proNPY”. In the data set with Gly-Ser-proNPY, the “mass loss after overnight digestion (ESI-MS), E/S 1:20 and 1:100” value is “incubation with ruLAP2 results in the cleavage of the two N-terminal residues Gly-Ser with a theoretical loss of 144.1 amu (found 144.2)”. The “digestion of the peptide, 37 C, 4 h, RP-HPLC and ESI-MS” value in data set [2] was “the 14mer is not digested with ruLAP2 within 4 h. There is no change in the HPLC profile when compared with the control. In fact, digestion results only in the cleavage of the N-terminal Proline”.
